{"source": "paper PMC6966814", "about": "“Receptor kinase FERONIA regulates flowering time in Arabidopsis”", "key": {"[1]": {"target": "T1, GST-CCA1 (… CLOCK-ASSOCIATED1) (Arabidopsis thaliana, UniProt P92973 1-608)", "T1 sequence (P92973 whole entry)": "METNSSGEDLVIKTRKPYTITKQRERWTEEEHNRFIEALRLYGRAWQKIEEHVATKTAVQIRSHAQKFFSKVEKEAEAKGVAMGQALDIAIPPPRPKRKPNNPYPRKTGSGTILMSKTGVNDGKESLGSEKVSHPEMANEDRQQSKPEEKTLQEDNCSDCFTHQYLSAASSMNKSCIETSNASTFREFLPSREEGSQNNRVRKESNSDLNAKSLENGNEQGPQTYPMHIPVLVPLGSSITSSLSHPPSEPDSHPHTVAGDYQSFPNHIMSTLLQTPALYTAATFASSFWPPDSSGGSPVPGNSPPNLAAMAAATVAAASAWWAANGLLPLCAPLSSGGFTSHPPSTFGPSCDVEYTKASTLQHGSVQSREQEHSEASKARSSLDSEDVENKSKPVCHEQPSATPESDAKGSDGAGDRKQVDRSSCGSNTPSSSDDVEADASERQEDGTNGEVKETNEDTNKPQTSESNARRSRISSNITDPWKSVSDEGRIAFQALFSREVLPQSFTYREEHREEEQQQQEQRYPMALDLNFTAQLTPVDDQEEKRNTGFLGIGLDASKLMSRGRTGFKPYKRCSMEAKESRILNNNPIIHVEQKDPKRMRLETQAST", "assay": "EMSA; 20 fmol probe, 5 ug protein; EMSA: 100 mM Tris-HCl pH 8.0, 5 mM DTT, 2.5 mM EDTA, 0.25% Triton X-100, 25% glycerin; competitor 15 min then probe 20 min; 4% native PAGE, 0.5x TBE; temperature not stated", "details": "protein: recombinant; label: FITC on strand 1 (S35; printed after its 3' end); blunt"}, "[2]": {"target": "T1, GST-CCA1 (… CLOCK-ASSOCIATED1)", "assay": "competition (EMSA); 100x unlabeled competitor vs FITC-pFER; EMSA: 100 mM Tris-HCl pH 8.0, 5 mM DTT, 2.5 mM EDTA, 0.25% Triton X-100, 25% glycerin; competitor 15 min then probe 20 min; 4% native PAGE, 0.5x TBE; temperature not stated", "details": "protein: recombinant; label: none; blunt"}, "[3]": {"target": "T1, GST-CCA1 (… CLOCK-ASSOCIATED1)", "assay": "competition (EMSA); 100x unlabeled competitor vs FITC-pFER; did not compete; EMSA: 100 mM Tris-HCl pH 8.0, 5 mM DTT, 2.5 mM EDTA, 0.25% Triton X-100, 25% glycerin; competitor 15 min then probe 20 min; 4% native PAGE, 0.5x TBE; temperature not stated", "details": "protein: recombinant; label: none; blunt"}}, "data": [{"binder": "pFER probe (EE element), FITC (dsDNA) DNA 1: TCTCCCCCAAAATATCTCTGTCTTC DNA 2: GAAGACAGAGATATTTTGGGGGAGA", "values": [{"measurement": "binding result", "setting": "[1]", "result": "binds"}]}, {"binder": "pFER competitor A (unlabeled WT) (dsDNA) DNA 1: TCTCCCCCAAAATATCTCTGTCTTC DNA 2: GAAGACAGAGATATTTTGGGGGAGA", "values": [{"measurement": "binding result", "setting": "[2]", "result": "binds"}]}, {"binder": "pFER-Mutant competitor B (AAATATCT to GGGGGGGG) (dsDNA) DNA 1: TCTCCCCCAGGGGGGGGCTGTCTTC DNA 2: GAAGACAGCCCCCCCCTGGGGGAGA", "values": [{"measurement": "binding result", "setting": "[3]", "result": "no binding"}]}]}
